According to patent publication US20100003690A1 (published 2010):

Molecular target: hERG 1b (human, UniProt Q12809 377-1159)
Assay: cell-based or functional assay

B1: hERG 1a (other, human, UniProt Q12809 1-1159, looked up)
chain: MPVRRGHVAPQNTFLDTIIRKFEGQSRKFIIANARVENCAVIYCNDGFCELCGYSRAEVMQRPCTCDFLHGPRTQRRAAAQIAQALLGAEERKVEIAFYRKDGSCFLCLVDVVPVKNEDGAVIMFILNFEVVMEKDMVGSPAHDTNHRGPPTSWLAPGRAKTFRLKLPALLALTARESSVRSGGAGGAGAPGAVVVDVDLTPAAPSSESLALDEVTAMDNHVAGLGPAEERRALVGPGSPPRSAPGQLPSPRAHSLNPDASGSSCSLARTRSRESCASVRRASSADDIEAMRAGVLPPPPRHASTGAMHPLRSGLLNSTSDSDLVRYRTISKIPQITLNFVDLKGDPFLASPTSDREIIAPKIKERTHNVTEKVTQVLSLGADVLPEYKLQAPRIHRWTILHYSPFKAVWDWLILLLVIYTAVFTPYSAAFLLKETEEGPPATECGYACQPLAVVDLIVDIMFIVDILINFRTTYVNANEEVVSHPGRIAVHYFKGWFLIDMVAAIPFDLLIFGSGSEELIGLLKTARLLRLVRVARKLDRYSEYGAAVLFLLMCTFALIAHWLACIWYAIGNMEQPHMDSRIGWLHNLGDQIGKPYNSSGLGGPSIKDKYVTALYFTFSSLTSVGFGNVSPNTNSEKIFSICVMLIGSLMYASIFGNVSAIIQRLYSGTARYHTQMLRVREFIRFHQIPNPLRQRLEEYFQHAWSYTNGIDMNAVLKGFPECLQADICLHLNRSLLQHCKPFRGATKGCLRALAMKFKTTHAPPGDTLVHAGDLLTALYFISRGSIEILRGDVVVAILGKNDIFGEPLNLYARPGKSNGDVRALTYCDLHKIHRDDLLEVLDMYPEFSDHFWSSLEITFNLRDTNMIPGSPGSTELEGGFSRQRKRKLSFRRRTDKDTEQPGEVSALGPGRAGAGPSSRGRPGGPWGESPSSGPSSPESSEDEGPGRSSSPLRLVPFSSPRPPGEPPGGEPLMEDCEKSSDTCNPLSGAFSGVSNIFSFWGDSRGRQYQELPRCPAPTPSLLNIPLSSPGRRPRGDVESRLDALQRQLNRLETRLSADMATVLQLLQRQMTLVPPAYSAVTTPGPGPTSTSPLLPVSPLPTLTLDSLSQVSQFMACEELPPGAPELPQEGPTRRLSLPGQLGALTSQPLHRHGSDPGS
  hERG 1b maturation by Western blot analysis: ~3 fold
